Legend:
[1] = target: CD68 on macrophages of mouse splenocytes (mouse) (UniProt P31996); assay: cell-based or functional assay
[2] = target: Discoidin domain receptor tyrosine kinase 2 (DDR2) on neonatal rat cardiac fibroblasts (rat); assay: cell-based or functional assay

Sequence of UniProt P31996 (P31996 21-326): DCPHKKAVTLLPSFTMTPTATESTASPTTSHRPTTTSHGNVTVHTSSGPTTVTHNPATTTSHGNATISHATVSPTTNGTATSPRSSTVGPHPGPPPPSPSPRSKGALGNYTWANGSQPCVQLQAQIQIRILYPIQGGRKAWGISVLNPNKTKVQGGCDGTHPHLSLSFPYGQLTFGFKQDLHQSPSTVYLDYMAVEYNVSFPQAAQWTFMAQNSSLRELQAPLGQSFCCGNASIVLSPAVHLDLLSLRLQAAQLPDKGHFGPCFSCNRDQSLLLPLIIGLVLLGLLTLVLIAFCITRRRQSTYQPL

Substance | macrophage uptake of FITC:CD68-cloaked CDCexo by FACS, 5 minutes of incubation [1] | macrophage uptake of FITC:CD68-cloaked CDCexo by FACS, 15 minutes of incubation [1] | rate of uptake of control-cloaked CDCexo by rat cardiac fibroblasts, flow cytometry [2] | uptake of bio-IgG/FITC CDC-EV by neonatal rat cardiac fibroblasts after twelve hours, flow cytometry [2]
biotinylated CD68 monoclonal antibody (bio-CD68), clone FA-11 (ThermoFisher) | 91% | 93% | – | –
biotinylated IgG isotype antibody (bio-IgG) control (rabbit IgG isotype control, Abcam cat # ab200208) | – | – | 5% | 5%

Reference: patent US20200316226A1
